Here are results for two molecules from US20250049939A1, “NOVEL FLT3 ANTIBODIES AND ANTIBODY-DRUG-CONJUGATES BASED THEREON, THERAPEUTIC METHODS AND USES THEREOF IN COMBINATION WITH TYROSINE KINASE INHIBITORS” (TUBULIS GmbH, priority 2021, published 2025).

The target of test [1] is T1, FLT3 as expressed on FLT3 positive human leukemia and lymphoma cell lines (e.g. MOLM-13) (human) (UniProt P36888).
T1 sequence (looked up): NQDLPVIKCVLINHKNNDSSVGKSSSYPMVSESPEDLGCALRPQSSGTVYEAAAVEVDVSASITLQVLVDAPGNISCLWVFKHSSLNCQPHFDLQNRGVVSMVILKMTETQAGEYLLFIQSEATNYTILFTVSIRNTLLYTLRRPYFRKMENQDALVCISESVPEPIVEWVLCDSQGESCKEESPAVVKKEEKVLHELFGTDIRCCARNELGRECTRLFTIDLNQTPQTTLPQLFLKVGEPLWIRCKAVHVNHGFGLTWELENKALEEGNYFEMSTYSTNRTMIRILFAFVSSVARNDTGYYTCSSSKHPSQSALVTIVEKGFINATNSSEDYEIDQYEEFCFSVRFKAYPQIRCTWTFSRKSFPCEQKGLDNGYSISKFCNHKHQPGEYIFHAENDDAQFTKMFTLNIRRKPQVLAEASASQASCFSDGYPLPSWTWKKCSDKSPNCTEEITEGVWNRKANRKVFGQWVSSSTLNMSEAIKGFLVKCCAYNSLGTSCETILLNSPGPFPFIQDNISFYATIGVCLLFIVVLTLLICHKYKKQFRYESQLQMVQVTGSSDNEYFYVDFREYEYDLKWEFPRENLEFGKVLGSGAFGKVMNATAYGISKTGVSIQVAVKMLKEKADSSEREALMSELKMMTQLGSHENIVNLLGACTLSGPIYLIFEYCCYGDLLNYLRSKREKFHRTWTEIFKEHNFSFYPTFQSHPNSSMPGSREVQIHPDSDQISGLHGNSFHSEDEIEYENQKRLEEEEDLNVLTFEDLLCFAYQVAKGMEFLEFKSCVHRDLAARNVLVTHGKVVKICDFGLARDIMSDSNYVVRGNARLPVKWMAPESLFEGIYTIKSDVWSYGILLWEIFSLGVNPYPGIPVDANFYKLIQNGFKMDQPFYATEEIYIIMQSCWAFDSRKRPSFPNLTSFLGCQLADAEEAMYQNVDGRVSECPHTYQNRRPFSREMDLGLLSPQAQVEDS
Nature of the test: cell-based or functional assay.

In test [2] the target is recombinant human FLT3 protein (human) (UniProt P36888). Nature of the test: ELISA on recombinant human FLT3, normalized to BSA control.

B1: deglycosylated 20D9-ADC (antibody, V domains shown)
VH: DVMLVESGGGLVQPGRSLKLSCVASGFTFNNYWMTWIRQAPGKGLEWIASITKTGGGTYYPDSVKGRFTISRDNAKSTLYLQMNSLRSEDTATYYCTTLQQLGVMDAWGQGASVTVSS
VL: DVQMTQSPSVLSASVGDRITLNCKASQNINKELNWYQQKLGEAPKLLIYNTNNLQTGIPSRFSGSGSGTDYTLTISSLQPEDVATYFCFQHKSWPLTFGSGTKLEIKR
As for B1, in test [1], the IC50 of cytotoxicity in MOLM-13 cells, 96 h, resazurin was determined as 0.474 µg/mL.

B2: 19H5 chimeric anti-FLT3 monoclonal antibody (antibody, V domains shown)
VH: MVQPSQTLSLTCTVSGFSLTSYNVNWVRQPPGKGLEWIGAMWRGGGTDYNPALKSRLSISRDTSKSQVFLKMNRLQTEDTAIYFCTRGFGDYWGQGVMVTVSS
VL: DVQMTQSPSSMSASLGDRVTFTCQASQDIGNNLIYFQQKPGKSPRRMICCATNLAHGVPSRFSGSRSGSDYSLTLVSLESEDVADYHCLQYEHYPRTFGGGTKLELKR
Broadly, the Kd is the free concentration of one partner at which half of the binding sites on the other are occupied at equilibrium, for simple one-to-one binding. Take B2: the dissociation constant Kd in test [2] amounted to 0.134 µg/mL.
